In article PMC9482650, “Quantitative fragmentomics allow affinity mapping of interactomes” (Nature Communications, 2022):

What was measured:
Test in all cases: holdup assay
Design in all cases: key: below the threshold = too weak to quantify, mostly under pKd 3.1 to 4
Conditions in all cases: plain residues with an end cap or a label only (N-terminal biotin on a linker: ado-ado)
LIN7B, Q9HAP6 = biological target: T1, LIN7B, Q9HAP6
T1 sequence (Q9HAP6 88-185, limits assumed, looked up): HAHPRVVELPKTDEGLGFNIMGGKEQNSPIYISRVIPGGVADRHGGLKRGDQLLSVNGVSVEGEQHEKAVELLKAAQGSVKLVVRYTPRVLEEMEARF

PDZD7_3, Q9H5P4 = biological target: T2, PDZD7_3, Q9H5P4
T2 sequence (Q9H5P4 857-944, limits assumed, looked up): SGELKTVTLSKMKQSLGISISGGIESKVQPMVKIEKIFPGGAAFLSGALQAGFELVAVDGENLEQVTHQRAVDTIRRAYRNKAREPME

MPP2, Q14168 = biological target: T3, MPP2, Q14168
T3 sequence (Q14168 180-250, limits assumed, looked up): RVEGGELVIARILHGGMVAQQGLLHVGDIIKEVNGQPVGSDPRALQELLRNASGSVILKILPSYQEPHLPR

LNX2_3, Q8N448 = biological target: T4, LNX2_3, Q8N448
T4 sequence (Q8N448 463-564, limits assumed, looked up): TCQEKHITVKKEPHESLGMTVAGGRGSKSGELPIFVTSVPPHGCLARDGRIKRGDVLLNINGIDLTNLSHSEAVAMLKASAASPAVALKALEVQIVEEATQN

NHERF4_1, Q86UT5-2 = biological target: NHERF4_1, Q86UT5-2
HTRA4, P83105 = biological target: T5, HTRA4, P83105
T5 sequence (P83105 378-476, limits assumed, looked up): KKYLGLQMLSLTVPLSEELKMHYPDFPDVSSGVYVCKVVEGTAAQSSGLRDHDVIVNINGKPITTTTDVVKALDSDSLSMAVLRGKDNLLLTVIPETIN

DVL3, Q92997 = biological target: T6, DVL3, Q92997
T6 sequence (Q92997 244-331, limits assumed, looked up): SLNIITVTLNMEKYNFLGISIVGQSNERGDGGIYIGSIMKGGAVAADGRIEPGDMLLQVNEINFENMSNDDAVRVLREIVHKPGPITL

MAST2, Q6P0Q8 = biological target: MAST2, Q6P0Q8
Inadl_8, Q8NI35 = biological target: Inadl_8, Q8NI35
IL16_4, Q14005 = biological target: IL16_4, Q14005
APBA3_1, O96018 = biological target: T7, APBA3_1, O96018
T7 sequence (O96018 389-490, limits assumed, looked up): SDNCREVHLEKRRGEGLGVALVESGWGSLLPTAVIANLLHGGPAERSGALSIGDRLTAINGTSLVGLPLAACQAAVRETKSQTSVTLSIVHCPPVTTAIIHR

MAGI2_5, Q86UL8 = biological target: MAGI2_5, Q86UL8
Inadl_1, Q8NI35 = biological target: Inadl_1, Q8NI35
LNX1_3, Q8TBB1 = biological target: LNX1_3, Q8TBB1
ARHGEF12, Q9NZN5-2 = biological target: ARHGEF12, Q9NZN5-2
LIN7C, Q9NUP9 = biological target: T8, LIN7C, Q9NUP9
T8 sequence (Q9NUP9 88-185, limits assumed, looked up): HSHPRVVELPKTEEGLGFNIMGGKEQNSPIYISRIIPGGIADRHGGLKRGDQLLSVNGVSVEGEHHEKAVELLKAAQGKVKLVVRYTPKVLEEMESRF

DLG4_1, P78352 = biological target: DLG4_1, P78352
Inadl_6, Q8NI35 = biological target: Inadl_6, Q8NI35
PDZD2_2, O15018 = biological target: T9, PDZD2_2, O15018
T9 sequence (O15018 329-429, limits assumed, looked up): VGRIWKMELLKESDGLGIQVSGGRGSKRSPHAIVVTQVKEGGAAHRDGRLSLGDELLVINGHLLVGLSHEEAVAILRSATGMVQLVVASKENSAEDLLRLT

FRMPD2_1, Q68DX3 = biological target: FRMPD2_1, Q68DX3
Inadl_3, Q8NI35 = biological target: Inadl_3, Q8NI35
GRID2IP_1, A4D2P6 = biological target: GRID2IP_1, A4D2P6
Inadl_9, Q8NI35 = biological target: Inadl_9, Q8NI35
GRIP1_4, Q9Y3R0 = biological target: T10, GRIP1_4, Q9Y3R0
T10 sequence (Q9Y3R0 467-571, limits assumed, looked up): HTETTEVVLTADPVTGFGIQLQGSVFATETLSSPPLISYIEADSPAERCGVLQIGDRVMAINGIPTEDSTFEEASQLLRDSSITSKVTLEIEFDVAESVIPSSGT

NHERF4_4, Q86UT5 = biological target: NHERF4_4, Q86UT5
FRMPD1, Q5SYB0 = biological target: T11, FRMPD1, Q5SYB0
T11 sequence (Q5SYB0 52-145, limits assumed, looked up): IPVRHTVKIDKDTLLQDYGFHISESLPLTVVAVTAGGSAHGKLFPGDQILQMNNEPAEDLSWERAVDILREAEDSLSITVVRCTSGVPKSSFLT

Chain of Inadl_9, Q8NI35 (Q8NI35 1530-1615): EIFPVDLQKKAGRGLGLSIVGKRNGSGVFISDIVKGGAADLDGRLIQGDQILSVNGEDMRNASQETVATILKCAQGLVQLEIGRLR
Chain of Inadl_6, Q8NI35 (Q8NI35 1058-1167): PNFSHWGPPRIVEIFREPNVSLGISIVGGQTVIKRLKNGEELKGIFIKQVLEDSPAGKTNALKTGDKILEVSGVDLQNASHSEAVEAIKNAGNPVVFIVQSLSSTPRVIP
Chain of IL16_4, Q14005 (Q14005 1229-1329): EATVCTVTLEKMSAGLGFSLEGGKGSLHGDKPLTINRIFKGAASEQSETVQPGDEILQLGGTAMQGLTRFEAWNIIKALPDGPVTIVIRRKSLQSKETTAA
Chain of MAGI2_5, Q86UL8 (Q86UL8 915-1017): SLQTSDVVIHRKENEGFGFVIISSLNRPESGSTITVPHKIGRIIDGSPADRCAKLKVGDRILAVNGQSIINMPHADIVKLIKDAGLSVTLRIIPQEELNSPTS
Chain of Inadl_1, Q8NI35 (Q8NI35 113-229): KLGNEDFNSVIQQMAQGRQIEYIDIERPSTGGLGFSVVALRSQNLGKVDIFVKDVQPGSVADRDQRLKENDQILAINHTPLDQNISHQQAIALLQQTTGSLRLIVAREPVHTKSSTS
Chain of FRMPD2_1, Q68DX3 (Q68DX3 770-861): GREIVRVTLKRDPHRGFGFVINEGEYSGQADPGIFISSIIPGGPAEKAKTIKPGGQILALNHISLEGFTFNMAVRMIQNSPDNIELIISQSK
Chain of ARHGEF12, Q9NZN5-2 (Q9NZN5 other isoform, or with tags, fused parts or gaps): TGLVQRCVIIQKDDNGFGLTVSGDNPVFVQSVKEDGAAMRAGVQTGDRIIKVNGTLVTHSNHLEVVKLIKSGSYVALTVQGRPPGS
Chain of Inadl_8, Q8NI35 (Q8NI35 1425-1530): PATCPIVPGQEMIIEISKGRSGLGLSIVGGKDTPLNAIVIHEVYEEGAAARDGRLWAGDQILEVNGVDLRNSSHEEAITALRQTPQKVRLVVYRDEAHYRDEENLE
Chain of MAST2, Q6P0Q8 (Q6P0Q8 1099-1202): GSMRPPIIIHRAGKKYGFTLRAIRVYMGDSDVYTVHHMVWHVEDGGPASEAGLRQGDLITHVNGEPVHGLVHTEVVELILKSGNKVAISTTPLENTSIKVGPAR
Chain of NHERF4_1, Q86UT5-2 (Q86UT5 other isoform, or with tags, fused parts or gaps): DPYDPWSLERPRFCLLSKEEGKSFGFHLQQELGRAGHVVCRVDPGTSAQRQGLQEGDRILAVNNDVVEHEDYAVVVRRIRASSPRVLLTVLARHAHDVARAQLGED
Chain of DLG4_1, P78352 (P78352 62-152): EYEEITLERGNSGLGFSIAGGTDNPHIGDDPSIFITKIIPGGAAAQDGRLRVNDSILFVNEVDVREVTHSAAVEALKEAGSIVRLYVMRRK
Chain of Inadl_3, Q8NI35 (Q8NI35 359-469): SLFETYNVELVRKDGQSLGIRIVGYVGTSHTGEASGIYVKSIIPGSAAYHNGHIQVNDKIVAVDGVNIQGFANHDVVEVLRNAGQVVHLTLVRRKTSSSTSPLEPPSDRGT
Chain of LNX1_3, Q8TBB1 (Q8TBB1 500-596): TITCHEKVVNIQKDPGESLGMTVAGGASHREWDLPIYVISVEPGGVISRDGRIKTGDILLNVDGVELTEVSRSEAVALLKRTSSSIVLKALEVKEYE
Chain of NHERF4_4, Q86UT5 (Q86UT5 464-550): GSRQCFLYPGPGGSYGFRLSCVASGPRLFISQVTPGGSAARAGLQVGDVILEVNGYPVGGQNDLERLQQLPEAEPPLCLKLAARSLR
Chain of GRID2IP_1, A4D2P6 (A4D2P6 1-87): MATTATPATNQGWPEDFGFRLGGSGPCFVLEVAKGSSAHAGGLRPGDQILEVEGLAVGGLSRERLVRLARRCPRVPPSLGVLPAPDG

Binder | pKd (LIN7B, Q9HAP6) | pKd (PDZD7_3, Q9H5P4) | pKd (MPP2, Q14168) | pKd (LNX2_3, Q8N448) | pKd (NHERF4_1, Q86UT5-2) | pKd (HTRA4, P83105) | pKd (DVL3, Q92997) | pKd (MAST2, Q6P0Q8) | pKd (Inadl_8, Q8NI35) | pKd (IL16_4, Q14005) | pKd (APBA3_1, O96018) | pKd (MAGI2_5, Q86UL8) | pKd (Inadl_1, Q8NI35) | pKd (LNX1_3, Q8TBB1) | pKd (ARHGEF12, Q9NZN5-2) | pKd (LIN7C, Q9NUP9) | pKd (DLG4_1, P78352) | pKd (Inadl_6, Q8NI35) | pKd (PDZD2_2, O15018) | pKd (FRMPD2_1, Q68DX3) | other results
PKRSFIESNV [TANC1, Q9C0D5] | below the threshold | 4.12 | below the threshold | below the threshold | below the threshold | 3.92 | below the threshold | 5.2 | 4.15 | below the threshold | below the threshold | 4.41 | below the threshold | below the threshold | 3.47 | below the threshold | 4.73 | below the threshold | 4.81 | below the threshold | pKd (Inadl_3, Q8NI35): 3.56; pKd (GRID2IP_1, A4D2P6): below the threshold; pKd (Inadl_9, Q8NI35): below the threshold; pKd (GRIP1_4, Q9Y3R0): below the threshold; pKd (NHERF4_4, Q86UT5): 3.83; pKd (FRMPD1, Q5SYB0): below the threshold
DDEDRLVIEI [ZNF831, Q5JPB2] | 3.56 | below the threshold | below the threshold | below the threshold | below the threshold | 4.97 | below the threshold | 4.08 | below the threshold | 3.77 | below the threshold | below the threshold | 3.64 | below the threshold | 3.53 | below the threshold | below the threshold | below the threshold | 3.75 | below the threshold | pKd (Inadl_3, Q8NI35): 4.8; pKd (GRID2IP_1, A4D2P6): below the threshold; pKd (Inadl_9, Q8NI35): 3.48; pKd (GRIP1_4, Q9Y3R0): below the threshold; pKd (NHERF4_4, Q86UT5): 3.66; pKd (FRMPD1, Q5SYB0): below the threshold
QMNQTLPVQV [EPHB3, P54753] | below the threshold | below the threshold | below the threshold | below the threshold | below the threshold | 4.36 | below the threshold | 4.1 | 3.55 | 3.77 | below the threshold | below the threshold | below the threshold | 3.61 | below the threshold | below the threshold | below the threshold | below the threshold | below the threshold | 4.36 | pKd (Inadl_3, Q8NI35): 3.55; pKd (GRID2IP_1, A4D2P6): below the threshold; pKd (Inadl_9, Q8NI35): 4.34; pKd (GRIP1_4, Q9Y3R0): below the threshold; pKd (NHERF4_4, Q86UT5): 3.92; pKd (FRMPD1, Q5SYB0): below the threshold
